# According to PMC10821591:
# Biological target: GAP domain of human Ral GTPase Accelerating Protein α1 (residues 1807-1988) (human) (UniProt Q6GYQ0)
# Assay: ITC; MicroCal iTC200, 20 °C; cell: RalGAPα1(GAP) 15 μM; syringe: MAF1 150 μM, 19 injections of 2 μl; 20 mM Hepes pH 7.5, 150 mM NaCl, 1 mM TCEP; one-site model
# Sequence of GAP domain of human Ral GTPase Accelerating Protein α1 (residues 1807-1988) (human) (Q6GYQ0 1807-1988): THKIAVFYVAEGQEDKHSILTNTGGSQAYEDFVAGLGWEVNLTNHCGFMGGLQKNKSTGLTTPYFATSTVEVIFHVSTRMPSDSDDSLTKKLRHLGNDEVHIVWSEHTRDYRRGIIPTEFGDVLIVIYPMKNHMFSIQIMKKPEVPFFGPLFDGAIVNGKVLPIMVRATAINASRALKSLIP
Substance,Kd [nM],dH [kcal/mol],stoichiometry N
"MAF1b STL-RKK (MAF1b 173-443, S438R/T439K/L441K) (domain or fragment)",518,–,–
"T. gondii Mitochondrial Association Factor 1b, structured C-terminal domain (residues 173-443) (domain or fragment)",334,-14.6,1
